Target: T1, 6xHis-E1A289R (HAdV5 E1A289R, 6xHis-tagged fusion protein) (human adenovirus 5 (HAdV5), UniProt P03255 1-289)
T1 construct: Early protein 1A (E1A) of human adenovirus 5 (HAdV5), the 289R product (289 residues by its name); also called Early protein 1A
Test: pull-down; GST-ARGLU1 or GST mixed with 6xHis-E1A289R, captured on glutathione beads; 1 µg of each protein; western blot with M73 and M2 monoclonal E1A antibodies; glutathione beads alone as negative control
Details: both partners purified

T1 sequence (P03255 whole entry, the tested form may be a part): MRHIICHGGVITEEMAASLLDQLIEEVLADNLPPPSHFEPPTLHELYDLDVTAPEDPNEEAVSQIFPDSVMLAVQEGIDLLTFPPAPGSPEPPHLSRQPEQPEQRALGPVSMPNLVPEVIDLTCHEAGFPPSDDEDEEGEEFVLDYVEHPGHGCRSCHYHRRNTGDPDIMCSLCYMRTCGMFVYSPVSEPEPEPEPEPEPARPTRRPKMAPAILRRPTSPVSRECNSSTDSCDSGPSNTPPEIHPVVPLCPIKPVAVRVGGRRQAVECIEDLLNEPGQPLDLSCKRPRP

B1: GST-ARGLU1 (human ARGLU1, GST-tagged fusion protein) (natural protein, UniProt Q9NWB6 1-273, looked up)
chain: MGRSRSRSSSRSKHTKSSKHNKKRSRSRSRSRDKERVRKRSKSRESKRNRRRESRSRSRSTNTAVSRRERDRERASSPPDRIDIFGRTVSKRSSLDEKQKREEEEKKAEFERQRKIRQQEIEEKLIEEETARRVEELVAKRVEEELEKRKDEIEREVLRRVEEAKRIMEKQLLEELERQRQAELAAQKAREEEERAKREELERILEENNRKIAEAQAKLAEEQLRIVEEQRKIHEERMKLEQERQRQQKEEQKIILGKGKSRPKLSFSLKTQD
notes: Arginine and glutamate-rich protein 1 (ARGLU1), human; also called Arginine and glutamate-rich protein 1; source: E. coli BL21 (DE3)-CodonPlus RIPL, purified (glutathione Sepharose, eluted with reduced glutathione, dialyzed)
B1: binds.

— publication PMC12645976, “ARGLU1 is a negative regulator of the adenoviral replicative cycle” (Journal of Virology, 2025)
